In paper PMC5524754, “Angiopoietin-like 4 induces a β-catenin-mediated upregulation of ID3 in fibroblasts to reduce scar collagen expression” (Scientific Reports, 2017):

Biological target: T1, Extracellular domain of human CDH11 (Abnova) (human, UniProt P55287 54-617)
T1 construct: cadherin-11 (CDH11), human, extracellular domain; No catalogue number is printed; also called cadherin-11; immobilized CDH11; source: bought: Abnova
T1 sequence (looked up): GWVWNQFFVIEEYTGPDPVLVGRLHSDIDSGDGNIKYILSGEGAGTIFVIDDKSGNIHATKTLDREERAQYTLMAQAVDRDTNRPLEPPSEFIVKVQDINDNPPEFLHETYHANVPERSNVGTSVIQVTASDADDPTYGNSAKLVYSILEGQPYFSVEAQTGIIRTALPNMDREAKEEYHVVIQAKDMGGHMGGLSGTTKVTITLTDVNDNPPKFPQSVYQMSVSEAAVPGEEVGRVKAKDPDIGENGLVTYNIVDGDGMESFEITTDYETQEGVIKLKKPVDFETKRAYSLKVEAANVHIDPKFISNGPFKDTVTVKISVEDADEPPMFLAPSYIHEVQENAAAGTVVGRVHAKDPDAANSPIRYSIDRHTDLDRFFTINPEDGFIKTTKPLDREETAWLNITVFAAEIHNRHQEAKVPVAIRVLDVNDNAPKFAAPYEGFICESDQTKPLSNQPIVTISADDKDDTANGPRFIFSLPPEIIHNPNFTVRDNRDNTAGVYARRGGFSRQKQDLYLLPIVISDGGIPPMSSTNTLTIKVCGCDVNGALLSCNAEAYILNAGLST
Experiment: SPR; BIACore 3000; extracellular domain of human CDH11 immobilised on a CM5 chip by amine coupling; PBS running buffer; cANGPTL4 injected at 28.6, 14.3, 7.15, 3.58 and 1.79 nM, 10 uL/min; Langmuir 1:1 model
Settings: both partners purified

B1: recombinant human cANGPTL4 (C-terminal fibrinogen-like domain of angiopoietin-like 4) (domain or fragment, UniProt Q9BY76 179-401, looked up)
chain: SRLHRLPRDCQELFQVGERQSGLFEIQPQGSPPFLVNCKMTSDGGWTVIQRRHDGSVDFNRPWEAYKAGFGDPHGEFWLGLEKVHSITGDRNSRLAVQLRDWDGNAELLQFSVHLGGEDTAYSLQLTAPVAGQLGATTVPPSGLSVPFSTWDQDHDLRRDKNCAKSLSGGWWFGTCSHSNLNGQYFRSIPQQRQKLKKGIFWKTWRGRYYPLQATTMLIQPMA
notes: angiopoietin-like 4 (ANGPTL4), human, C-terminal fibrinogen-like domain (cANGPTL4); also called recombinant cANGPTL4 protein; source: purified protein for SPR, added to fibroblast cultures and applied to wounds
**Q.** B1 was tested. Which Kd did it give?
**A.** The Kd was 42.8 nM.
